Laboratory results: the supplement of paper PMC10567573

B1: STK38L (parent)
chain: NWKETLVFPPEVPISEKAKDLILR

Variants of: B1
Experiment: protein stability index of a GFP-peptide fusion (GPS, HEK-293T) (PSI 1-6); higher = more stable
Conditions: c terminus: a fixed tail appended
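Also: lentivirally expressed fusions sorted by FACS into six bins by GFP to DsRed ratio, PSI derived from sequencing read proportions per bin multiplied by bin number.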

Variant | protein stability index
NWKERLVFPPEVPISEKAKDLILR | 3.12
NWKELLVFPPEVPISEKAKDLILR | 2.09
NWKEDLVFPPEVPISEKAKDLILR | 3.65
NWKENLVFPPEVPISEKAKDLILR | 3.36
NWKEALVFPPEVPISEKAKDLILR | 3.27
NWKEILVFPPEVPISEKAKDLILR | 2.53
NWKEWLVFPPEVPISEKAKDLILR | 2.05
NWKEELVFPPEVPISEKAKDLILR | 2.36
NWKEHLVFPPEVPISEKAKDLILR | 3.2
NWKEMLVFPPEVPISEKAKDLILR | 2.75
NWKEVLVFPPEVPISEKAKDLILR | 2.61
NWKEYLVFPPEVPISEKAKDLILR | 2.62
NWKESLVFPPEVPISEKAKDLILR | 2.87
NWKEPLVFPPEVPISEKAKDLILR | 3.42
NWKEKLVFPPEVPISEKAKDLILR | 2.48
NWKECLVFPPEVPISEKAKDLILR | 2.44
NWKEQLVFPPEVPISEKAKDLILR | 4.08
NWKGTLVFPPEVPISEKAKDLILR | 2.31
NWKTTLVFPPEVPISEKAKDLILR | 2.57
NWKRTLVFPPEVPISEKAKDLILR | 1.97
NWKMTLVFPPEVPISEKAKDLILR | 2.58
NWKNTLVFPPEVPISEKAKDLILR | 1.76
NWKHTLVFPPEVPISEKAKDLILR | 2.82
NWKCTLVFPPEVPISEKAKDLILR | 2.16

Variant | protein stability index
NWKDTLVFPPEVPISEKAKDLILR | 3.01
NWKWTLVFPPEVPISEKAKDLILR | 1.78
NWKPTLVFPPEVPISEKAKDLILR | 2.85
NWKATLVFPPEVPISEKAKDLILR | 2.1
NWKVTLVFPPEVPISEKAKDLILR | 2.38
NWKSTLVFPPEVPISEKAKDLILR | 2.32
NWKFTLVFPPEVPISEKAKDLILR | 2.29
NWKITLVFPPEVPISEKAKDLILR | 1.69
NWKKTLVFPPEVPISEKAKDLILR | 2.47
NWKQTLVFPPEVPISEKAKDLILR | 2.62
NWKYTLVFPPEVPISEKAKDLILR | 1.32
NWKETLVFEPEVPISEKAKDLILR | 2.75
NWKETLVFCPEVPISEKAKDLILR | 2.27
NWKETLVFIPEVPISEKAKDLILR | 2.75
NWKETLVFGPEVPISEKAKDLILR | 1.93
NWKETLVFHPEVPISEKAKDLILR | 2.57
NWKETLVFFPEVPISEKAKDLILR | 2.34
NWKETLVFYPEVPISEKAKDLILR | 1.96
NWKETLVFDPEVPISEKAKDLILR | 2.77
NWKETLVFWPEVPISEKAKDLILR | 1.56
NWKETLVFKPEVPISEKAKDLILR | 2.68
NWKETLVFLPEVPISEKAKDLILR | 2.32
NWKETLVFMPEVPISEKAKDLILR | 2.05
NWKETLVFRPEVPISEKAKDLILR | 2.93

Variant | protein stability index
NWKETLVFSPEVPISEKAKDLILR | 3.06
NWKETLVFVPEVPISEKAKDLILR | 2.52
NWKETLVFNPEVPISEKAKDLILR | 2.78
NWKETLVFTPEVPISEKAKDLILR | 2.9
NWKETLVFQPEVPISEKAKDLILR | 4.18
NWKETLVFAPEVPISEKAKDLILR | 2.69
NWKETLVLPPEVPISEKAKDLILR | 2.94
NWKETLVQPPEVPISEKAKDLILR | 3.53
NWKETLVHPPEVPISEKAKDLILR | 3.33
NWKETLVDPPEVPISEKAKDLILR | 3.9
NWKETLVKPPEVPISEKAKDLILR | 4.21
NWKETLVTPPEVPISEKAKDLILR | 3.58
NWKETLVVPPEVPISEKAKDLILR | 3.75
NWKETLVCPPEVPISEKAKDLILR | 4.02
NWKETLVEPPEVPISEKAKDLILR | 3.98
NWKETLVIPPEVPISEKAKDLILR | 3.43
NWKETLVMPPEVPISEKAKDLILR | 3.78
NWKETLVAPPEVPISEKAKDLILR | 4.08
NWKETLVWPPEVPISEKAKDLILR | 3.5
NWKETLVGPPEVPISEKAKDLILR | 3.02
NWKETLVNPPEVPISEKAKDLILR | 3.1
NWKETLVSPPEVPISEKAKDLILR | 3.73
NWKETLGFPPEVPISEKAKDLILR | 4.56
NWKETLNFPPEVPISEKAKDLILR | 3.63

Variant | protein stability index
NWKETLEFPPEVPISEKAKDLILR | 3.53
NWKETLKFPPEVPISEKAKDLILR | 2.95
NWKETLTFPPEVPISEKAKDLILR | 3.33
NWKETLYFPPEVPISEKAKDLILR | 2.9
NWKETLDFPPEVPISEKAKDLILR | 3.81
NWKETLHFPPEVPISEKAKDLILR | 3.27
NWKETLMFPPEVPISEKAKDLILR | 2.94
NWKETLSFPPEVPISEKAKDLILR | 2.54
NWKETLAFPPEVPISEKAKDLILR | 3.52
NWKETLCFPPEVPISEKAKDLILR | 3.35
NWKETLLFPPEVPISEKAKDLILR | 3.65
NWKETLRFPPEVPISEKAKDLILR | 2.72
NWKETLWFPPEVPISEKAKDLILR | 4.68
NWKETLQFPPEVPISEKAKDLILR | 3.95
NWKETLFFPPEVPISEKAKDLILR | 2.63
NWKETLIFPPEVPISEKAKDLILR | 3.09
NWKETLPFPPEVPISEKAKDLILR | 4.19
NWKETLVFPYEVPISEKAKDLILR | 2.48
NWKETLVFPLEVPISEKAKDLILR | 2.81
NWKETLVFPKEVPISEKAKDLILR | 3.03
NWKETLVFPVEVPISEKAKDLILR | 3.02
NWKETLVFPGEVPISEKAKDLILR | 2.49
